Source: PMC10160951 (Proceedings of the National Academy of Sciences of the …, 2023)

Legend:
[1] = biological target: full-length SNAP-tagged NKG2D on HEK293 TRex cells (co-expressed with DAP10) (human) (UniProt P26718); assay: FRET or BRET
[2] = biological target: T1, Alexa Fluor 647-labeled MICB ECD (24 to 297) (human, UniProt Q29980 24-297, AF647 label on Cys213); assay: FRET or BRET
T1 sequence: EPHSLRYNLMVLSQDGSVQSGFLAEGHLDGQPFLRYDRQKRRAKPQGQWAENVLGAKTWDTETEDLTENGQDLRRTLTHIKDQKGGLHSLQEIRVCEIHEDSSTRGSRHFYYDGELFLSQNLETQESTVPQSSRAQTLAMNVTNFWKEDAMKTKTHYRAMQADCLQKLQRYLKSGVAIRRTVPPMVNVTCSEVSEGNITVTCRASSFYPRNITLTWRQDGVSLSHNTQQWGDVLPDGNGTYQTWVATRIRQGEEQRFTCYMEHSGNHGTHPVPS

[3] = biological target: T2, MICA ECD (24 to 297), not dye-labeled (human, UniProt Q29983 24-297); assay: SEC-MALS
T2 sequence: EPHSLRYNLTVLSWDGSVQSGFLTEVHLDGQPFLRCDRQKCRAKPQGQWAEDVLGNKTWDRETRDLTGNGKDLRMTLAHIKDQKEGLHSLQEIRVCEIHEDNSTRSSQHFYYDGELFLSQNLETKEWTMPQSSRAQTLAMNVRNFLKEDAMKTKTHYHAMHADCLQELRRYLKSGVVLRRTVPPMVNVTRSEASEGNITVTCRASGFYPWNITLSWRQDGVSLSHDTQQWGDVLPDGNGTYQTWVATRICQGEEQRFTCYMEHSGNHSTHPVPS

[4] = biological target: T2, MICA ECD (24 to 297), not dye-labeled; assay: SPR

Molecule: Alexa Fluor 647-labeled ULBP6 ECD (29 to 207) (from UniProt Q5VY80 29-207) (ligand)
- Kd [1]: 2.5 nM

B1: full-length SNAP-tagged NKG2D on HEK293 TRex cells (co-expressed with DAP10) (receptor)
chain: MGWIRGRRSRHSWEMSEFHNYNLDLKKSDFSTRWQKQRCPVVKSKCRENASPFFFCCFIAVAMGIRFIIMVTIWSAVFLNSLFNQEVQIPLTESYCGPCPKNWICYKNNCYQFFDESKNWYESQASCMSQNASLLKVYSKEDQDLLKLVKSYHWMGLVHIPTNGSWQWEDGSILSPNLLTIIEMQKGDCALYASSFKGYIENCSTPNTYICMQRTV
modifications: terbium label on the SNAP-tag
- Kd [2]: 700 nM

B2: hNKG2D 90-216, S117E, I173S mutant (domain or fragment)
chain: MGPLTESYCGPCPKNWICYKNNCYQFFDEEKNWYESQASCMSQNASLLKVYSKEDQDLLKLVKSYHWMGLVHIPTNGSWQWEDGSSLSPNLLTIIEMQKGDCALYASSFKGYIENCSTPNTYICMQRTV
- binding result [3]: binds

B3: biotinylated and detagged NKG2D ECD (90 to 216) (domain or fragment)
chain: PLTESYCGPCPKNWICYKNNCYQFFDESKNWYESQASCMSQNASLLKVYSKEDQDLLKLVKSYHWMGLVHIPTNGSWQWEDGSILSPNLLTIIEMQKGDCALYASSFKGYIENCSTPNTYICMQRTV
modifications: biotin on the Avi tag
- Kd [4]: 48 nM
